Data from patent US6635450.

T1: Kip1 (28-79), 52-amino acid peptide with a C-terminal hexahistidine tag
T1 chain: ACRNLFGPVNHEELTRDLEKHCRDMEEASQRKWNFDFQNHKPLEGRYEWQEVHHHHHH

T2: recombinant mouse Kip1 with a C-terminal hexahistidine sequence (expressed in BL21(DE3) bacteria from pET21a)
T2 chain: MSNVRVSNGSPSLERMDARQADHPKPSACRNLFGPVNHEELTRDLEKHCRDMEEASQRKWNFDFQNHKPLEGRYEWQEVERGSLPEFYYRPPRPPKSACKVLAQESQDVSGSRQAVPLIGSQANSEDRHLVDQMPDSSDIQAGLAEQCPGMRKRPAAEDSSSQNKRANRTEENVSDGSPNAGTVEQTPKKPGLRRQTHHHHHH

T3: p27 protein, the 27 kD cyclin E-Cdk2 binding protein of Mv1Lu mink epithelial cells (endogenous)
T3 chain: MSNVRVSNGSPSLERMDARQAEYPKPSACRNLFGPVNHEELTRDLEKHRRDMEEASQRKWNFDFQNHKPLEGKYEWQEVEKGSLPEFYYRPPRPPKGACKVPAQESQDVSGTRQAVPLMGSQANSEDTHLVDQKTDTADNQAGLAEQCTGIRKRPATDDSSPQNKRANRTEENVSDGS

B1: cyclin D2-Cdk4 complex (baculovirus produced, co-infected Sf9 cells) (protein)
chain 1: MELLCCEVDPVRRAVPDRNLLEDRVLQNLLTIEERYLPQCSYFKCVQKDIQPYMRRMVATWMLEVCEEQKCEEEVFPLAMNYLDRFLAGVPTPKTHLQLLGAVCMFLASKLKETIPLTAEKLCIYTDNSVKPQELLEWELVVLGKLKWNLAAVTPHDFIEHILRKLPQQKEKLSLIRKHAQTFIALCATDFKFAMYPPSMIATGSVGAAICGLQQDDEVNTLTCDALTELLAKITHTDVDCLKACQEQIEALLLNSLQQFRQEQHNAGSKSVEDPDQATTPTDVRDVDL
chain 2: MAATRYEPVAEIGVGAYGTVYKARDPHSGHFVALKSVRVPNGGAAGGGLPVSTVREVALLRRLEAFEHPNVVRLMDVCATSRTDRDIKVTLVFEHIDQDLRTYLDKAPPPGLPVETIKDLMRQFLSGLDFLHANCIVHRDLKPENILVTSNGTVKLADFGLARIYSYQMALTPVVVTLWYRAPEVLLQSTYATPVDMWSVGCIFAEMFRRKPLFCGNSEADQLGKIFDLIGLPPEDDWPREVSLPRGAFAPRGPRPVQSVVPEMEESGAQLLLEMLTFNPHKRISAFRALQHSYLHKEESDAE
B2: cyclin D1-Cdk4 complex (baculoviral, co-infected Sf9 cells) (protein)
chain 1: MEHQLLCCEVETIRRAYPDTNLLNDRVLRAMLKTEETCAPSVSYFKCVQKEIVPSMRKIVATWMLEVCEEQKCEEEVFPLAMNYLDRFLSLEPLKKSRLQLLGATCMFVASKMKETIPLTAEKLCIYTDNSIRPEELLQMELLLVNKLKWNLAAMTPHDFIEHFLSKMPEADENKQTIRKHAQTFVALCATDVKFISNPPSMVAAGSVVAAMQGLNLGSPNNFLSCYRTTHFLSRVIKCDPDCLRACQEQIEALLESSLRQAQQNVDPKATEEEGEVEEEAGLACTPTDVRDVDI
chain 2: MAATRYEPVAEIGVGAYGTVYKARDPHSGHFVALKSVRVPNGGAAGGGLPVSTVREVALLRRLEAFEHPNVVRLMDVCATSRTDRDIKVTLVFEHIDQDLRTYLDKAPPPGLPVETIKDLMRQFLSGLDFLHANCIVHRDLKPENILVTSNGTVKLADFGLARIYSYQMALTPVVVTLWYRAPEVLLQSTYATPVDMWSVGCIFAEMFRRKPLFCGNSEADQLGKIFDLIGLPPEDDWPREVSLPRGAFAPRGPRPVQSVVPEMEESGAQLLLEMLTFNPHKRISAFRALQHSYLHKEESDAE
B3: cyclin D3-Cdk4 complex (baculoviral, co-infected Sf9 cells) (protein)
chain 1: MELLCCEGTRHAPRAGPDPRLLGDQRVLQSLLRLEERYVPRASYFQCVQKEIKPHMRKMLAYWMLEVCEEQRCEEDVFPLAMNYLDRYLSCVPTRKAQLQLLGTVCLLLASKLRETTPLTIEKLCIYTDQAVAPWQLREWEVLVLGKLKWDLAAVIAHDFLALILHRLSLPSDRQALVKKHAQTFLALCATDYTFAMYPPSMIATGSIGAAVLGLGACSMSADELTELLAGITGTEVDCLRACQEQIEAALRESLREAAQTAPSPVPKAPRGSSSQGPSQTSTPTDVTAIHL
chain 2: MAATRYEPVAEIGVGAYGTVYKARDPHSGHFVALKSVRVPNGGAAGGGLPVSTVREVALLRRLEAFEHPNVVRLMDVCATSRTDRDIKVTLVFEHIDQDLRTYLDKAPPPGLPVETIKDLMRQFLSGLDFLHANCIVHRDLKPENILVTSNGTVKLADFGLARIYSYQMALTPVVVTLWYRAPEVLLQSTYATPVDMWSVGCIFAEMFRRKPLFCGNSEADQLGKIFDLIGLPPEDDWPREVSLPRGAFAPRGPRPVQSVVPEMEESGAQLLLEMLTFNPHKRISAFRALQHSYLHKEESDAE
B4: Cdk4 alone (baculoviral, Sf9 lysate) (protein)
chain: MAATRYEPVAEIGVGAYGTVYKARDPHSGHFVALKSVRVPNGGAAGGGLPVSTVREVALLRRLEAFEHPNVVRLMDVCATSRTDRDIKVTLVFEHIDQDLRTYLDKAPPPGLPVETIKDLMRQFLSGLDFLHANCIVHRDLKPENILVTSNGTVKLADFGLARIYSYQMALTPVVVTLWYRAPEVLLQSTYATPVDMWSVGCIFAEMFRRKPLFCGNSEADQLGKIFDLIGLPPEDDWPREVSLPRGAFAPRGPRPVQSVVPEMEESGAQLLLEMLTFNPHKRISAFRALQHSYLHKEESDAE

Columns and labels:
[1] = biological target: T1, Kip1 (28-79), 52-amino acid peptide …
[2] = biological target: T2, recombinant mouse Kip1 with a …
[3] = biological target: T3, p27 protein, the 27 kD cyclin E-Cdk2 …

Protein | Rb phosphorylation [1] | Rb kinase activity (phosphorylation of a GST-Rb fusion product) [2] | activation of Cdk2 by cyclin E in extracts (cyclin E-associated histone H1 kinase activity) [3] | lowering of the cyclin E threshold for Cdk2 activation (cyclin E-associated histone H1 kinase activity) [3]
B1 | inhibited cyclin E-Cdk2 or cyclin D2:Cdk4 less effectively | Addition of Kip1 to cyclin E-Cdk2, cyclin A-Cdk2 or cyclin D2-Cdk4 complexes inhibited their ability to phosphorylate a GST-Rb fusion product | Addition of cyclin D2-Cdk4 complexes, but neither subunit alone, to extracts from contact inhibited and TGF-β arrested cells allowed cyclin E to activate Cdk2 to a level equivalent to that observed in extracts from proliferating cells | –
B2 | – | – | – | Equal amounts of cyclin Di-Cdk4 and cyclin D3-Cdk4 complexes, as estimated by immunoblotting of Sf9 lysates, were much less effective in lowering the cyclin E threshold for Cdk2 activation
B3 | – | – | – | Equal amounts of cyclin Di-Cdk4 and cyclin D3-Cdk4 complexes, as estimated by immunoblotting of Sf9 lysates, were much less effective in lowering the cyclin E threshold for Cdk2 activation
B4 | – | – | Addition of cyclin D2-Cdk4 complexes, but neither subunit alone, to extracts from contact inhibited and TGF-β arrested cells allowed cyclin E to activate Cdk2 | –
